Source: article PMC5206705 (Scientific Reports, 2017)

Molecular target: the molecule itself
Test: SEC; preparative Superdex 200 in 50 mM Tris pH 8.0, 125 mM sodium chloride; elution at approximately 80 kDa against a 44 kDa monomer

B1: β-ketoacyl-acyl carrier protein synthase FabF from Listeria monocytogenes (enzyme, UniProt A0A0B8RFI6 1-413, looked up)
chain: MDKRRVVVTGIGAVTPIGNDAETSWENAKKGVNGVAKMTRLNPDDFPVKIAAELKDFDVEKYLEKKEARKMDRFTHYAIASAEMAVQDSGLVIDDSNANRVGVWIGSGIGGMETFETQYEIFLNRGHRRVSPFFVPMMIPDMGSGQVSIRFGAKGINSTTVTACATATNSIGDAFKVIERGDADAMITGGAEAPITKMSLAGFTANKALSLNPDPETACRPFDKDRDGFIIGEGAGIVILEEYEHAKARGAKIYAEIVGYGATGDAYHITAPAPNGEGAARAMKMAIDDAGLTPDKVDYINAHGTSTPYNDEYETQAIKTVFGDHAKKLAISSTKSMTGHTLGASGGIEAIFALLTIRDNIIAPTIHLKNQDEVCDLDYVPNEAREANVNVVISNSFGFGGHNATLVFKRIED
notes: FabF (β-ketoacyl-ACP synthase II) of Listeria monocytogenes, amplified from genomic DNA ATCC 19115D-5 with primers from the start to the stop codon; the construct encoded the full length protein; monomer about 44 kDa; Vector pMCSG21 with a TEV site; a few residues of the site may remain at the N-terminus after cleavage (surmise); also called LmFabF; β-ketoacyl-ACP synthase II; source: E. coli …
stoichiometry N: 2
